Assay: soluble fraction after stress (log2 fold change); higher = more stays soluble; pooled small domains, quantitative proteomics
Settings: stress: pH 4
Summary of the method: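 With high-throughput quantitative proteomics, pooled custom libraries of small protein domains were measured after pH 4 stress. Each domain's soluble amount after the stress gives a fold change taken as aggregation propensity. Higher log2 values mean more of the domain stayed soluble.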

HMQAPVVNHDLIKSFERQWREIKATAKGKVRSVNLSDARSILQSFLNTLQKGPGTDSLISSVQNELSLIA
soluble fraction (log2): 0.00595

HMGVDASVDSKLDLLSQVLDSDQVKEQLPEAVLEQLAQNLDRWRSLHEESELQDDDIAELNRLLGLFGLG
soluble fraction (log2): -1.67

HMNTLLGLSNSFQDNKDLENANSISRRFISYRPRSEAELRIRLLKVFSHEIVLESVAQMYREGLLNDQRF
soluble fraction (log2): -1.65

HMTETTTVPKLKGLTKDEAEDAAKSSKIKLEFIDEISKTVEAGVIIKQEKDEGETVNAGDTVKVYVSIGT
soluble fraction (log2): -0.0593

HMNIKITKSKNSEHYSIIYNTKINGKRTSKIYENIGNFEKLKLRAGEQEPIEWLKNYVSELNKKQKEDT
soluble fraction (log2): 0.22

HMATLAVPNLMRLSQGEAMALIRLSGLSIGNVSIDSSMGSPRVIRQEPQASGGMLVLTQGDQVHLWLEGP
soluble fraction (log2): -2.08

HMALPGESVYVSILQSGSNRDQGVGYLDDGTMVVVDGAIKDIGKSIEVVINKSHQTVAGKMLFAKKVA
soluble fraction (log2): -0.144

HMEEFDLNAYITKINSAATLNALKQAYAEANSAALSVKDKDAQRKIIVEKDKRKAELIQETAG
soluble fraction (log2): 0.313

HMFTNSTSSRQLTNSDDTLRLNISSQTRQMLPNGQPFGGSLSGKLLLVIYGATTRSIPAQTTPEKIVV
soluble fraction (log2): 0.105

HMEGNFFADIRQELMRELDQEAEWSDVQILEKIDDLVLLRTRRSSLTVNEKEQLRKELFYSVRK
soluble fraction (log2): -0.394

HMGTGSSAERITMLNSILERQIQAMEIQGNPDAPIVNIQKIYTTLQRIVETAGLKDVDQFFMNPLQGQKEM
soluble fraction (log2): -0.407

HMNNNIFVYPNPSINYINIDSDEEIWKLEIIQMSGEKINILPFSKRIDISFLSKGLYILNFNNYYIKFIK
soluble fraction (log2): -0.937

HMPRVLSSYTLTLRHQPTAEAVALVRTLLSPAGSVEVKEDGRTLVVRDELAALSRIVGALRSFDH
soluble fraction (log2): -0.139

HMDKINQEAIEDEAGLWLAKIDGRQLAQEEVRELIAWMRRSDFHREYLITLARQWDGMAALNKLATLFP
soluble fraction (log2): -1.4

HMGSFAADVGRMVRLGRAKRGISRRKLAADSGISERYLAQIEGGQGNPSVNVLKAIADAISVPVFELLPH
soluble fraction (log2): -0.197

HMNMANFARIRLILELHDRGMSQDEISRSRHMSRSTITTVLRTARKKGITYAGIRKLDDAALQKLFFPDR
soluble fraction (log2): 0.22

HMGNVRSWKGWTSAGGTRVQMRQGDSINSMARRYGVPIQAIVAVNGIDDPAKVQPGQSVIIPTYVY
soluble fraction (log2): 0.118

HMTDFDWSLFTQQLKRFNLFLSYDDREKLQTFQTLYGLNELDLAEYVAKASAGEKNGLNFNYLRQLINKEK
soluble fraction (log2): -1.08

HMIVVMQPGATKEQVQAVIDRVAEFGFQTKLAPGAERMVIGVVGSPLPDTLKEALERLPGVEEVIRVSKR
soluble fraction (log2): -0.0989

HMPAKIIKKSFVYNPIHRDTEYLAQFLQGEGQVSASGDKLVYYGTVEDISRIKSVLQSVDTPS
soluble fraction (log2): -0.434

HMGVGITAPLAGNIFKIVVQPGDVVASGDVVLVLEAMKMETEIRAASGGTVSQVLVREGDAVDAGHTLITL
soluble fraction (log2): -1.49

HMYVKKSSFVKKSLNNYEFKITDNTNDLLIFYKGMLPDLFREEQGIVVEGLIDKNNNIVASKV
soluble fraction (log2): -0.0152

HMPTLNIVDGHIAASDGVRILSIHNVTGRRYATSSKLPAGIYIVVLMPAKAETPLTVKVIVEA
soluble fraction (log2): -0.17

HMKGQNRSEITAGARVKVVQKQDQRTGALTEGIVRDILTRSPHHPHGIKVRLESGIVGRVKDVL
soluble fraction (log2): -0.287

HMITMADKIDTALSEMAANNEKINVSQVAKRLGISNSAIYKFNPEKIPDIQTAQKRQKHKAEAIAVGTEN
soluble fraction (log2): 0.0504

HMQQPVVVQQNQTVRVVTGGPGFQVANEGRALNNGLAGQVVQVRLGNGQIISGIARAGGIVEIL
soluble fraction (log2): 0.22

HMKGVPGIGDYVKLSGGSTVGKVLSISGKKAEVAFGLLRTTTELSKLEKVRKPKELLQSGVSS
soluble fraction (log2): ≥ 0.43

HMKRFSPPSIEEVDSYIREKGYTVDAERFVNFYESKGWYVGKNKMKNWRAAVATWQKEDNKRN
soluble fraction (log2): -0.0455

HMVINVKEILERIKLVKGFHTQIEIARFLGVSKGTISNWLARNSVDFPLVISKLDGVDLNWLFTGIGMPQ
soluble fraction (log2): -0.433

HMIDTPQELARLLRLLDEQNFEAEILFHKLRPDLLHLWSKEHVTRIAEALDAFDYQMALTLLNASP
soluble fraction (log2): -2.15

HMINDKLQHLFSLFPAMDKELKRKGITRQILWVEYKKQYPLGFGRSQFNSYFAAWKAQVSPS
soluble fraction (log2): 0.204

HMSENKIMEIVQDLAREKSVILISHRLANVTAADKILYMEQGKIAESGTHEQLMAQNKAYAALFNKQQEL
soluble fraction (log2): -0.0418

HMIGKDLLGYEVFSESGDLVGILKDVMWLPHSDVYVITNGGKELLIPVIPEVVKGINHEQGVIVISPM
soluble fraction (log2): -1.04

HMTTGLETYPGKIAVVSDDFIDGEGRVQLDGALWRAKTKDHQQLKQGDHVTIVNVKGLTLTVMPDD
soluble fraction (log2): -0.0405

HMYKIDFAEGDRVIIKGGAFSGLRATVVSLHPEKGMAKIKVYMFGDRETLVDIEVSQLEKDK
soluble fraction (log2): 0.113

HMSVDVEGNQRIPTEQVLSELRDVGVSFGKRVSGLNADTIRNQMIINNDEIAWLGVNVRGSRVYVEITERI
soluble fraction (log2): -0.0219

HMSWAAQVVDKMTNDQLIKSLNEIVNTGKQLGLDITVEQNGDKNFIMTVKDSKGNVQLVTPIG
soluble fraction (log2): -0.937

HMTSIISLAKARSIALQKVPGATSKNIHLSLDDEDDKQVYEGEIKYKQMEYVFEIDAKTGTFLKWTSERD
soluble fraction (log2): 0.185

HMRRSDLVTQGDEILKRLQWNQQQAKDFLNQHLKASSRQQLTDEQLLNFNMLLEEQLVKSME
soluble fraction (log2): -0.0311

HMLEAKQIQDNWESLIKLIEDNFTGERKENLLKMYTHFQDRMMFAPASSKEHFHNAFPGGYVEHVL
soluble fraction (log2): -0.942

HMSGSILVQVSATDLNIRKGPGTNYGTTGKYTGKGTFTIVETRSGQGSNAGWGKLKSGAGWISLDYAKR
soluble fraction (log2): -0.0233

HMRVNINVSENILDWVMKRVNPSVLSSKQGELLYAWKEGRKVPTYNQIEKMSKVTGIPLGYFFLEKPPVE
soluble fraction (log2): 0.411

HMNQAIIVPDVKGLPLEEATTFFENNDLRYTVIDSVYTKDVPPGAIYEMVPGAGSKVKEGRIIFVTLNAR
soluble fraction (log2): -0.565

HMDSLQDFAYEEIKKRIQNGEYAPGTKLNTQEISDSLGISRSPVLAAINRLIALGLVEATPRKGTTVA
soluble fraction (log2): -0.0359

HMLDVFSAEQVADVLSVSKRNLETWANNGKLIPDFIHGEVALYSKKQLEQFEQFQRFFNSSWDAERLIQP
soluble fraction (log2): -1.24

HMERYLLRDNIPNALHGERLDRVIAIMTGLSRSAVSALIKSNQVLRNGQIAQSISEKVVEGDELEVHLEP
soluble fraction (log2): -0.465

HMKTVKPSQIPYSEFLKLVETDKINDVSMVGRNIIGHLDDGSKFKTYTPPNDPTLIEKLSSHNIVINAAPE
soluble fraction (log2): 0.134

HMYSMSAPMPGVILEIKVAPGDQVNKGDVVMVLEAMKMKNDLHAARTGTVESIDINSGEQVKYGQVLLRFV
soluble fraction (log2): 0.0869

HMTKSTLQRQKIIADLIESGNISSQNQLKGLLKKNSLLITQATLSRDLSELGAIKKRQKDGLLVYVLPK
soluble fraction (log2): -0.0863

HMTVSIGSVIARERRLRGDTQQELAERLGVSKAAVSKWEVGQSIPDVTLLPRIAAYFSLTLDEL
soluble fraction (log2): -0.276

HMDAEELNSKAKDEFTWLEDDESETNLEYRKMVSSEDMAIVAKVAPALAAKLKYQLAHAATNMV
soluble fraction (log2): -0.529

HMGASTQLVEIKNAYENGEWQNVIDLAGKLHEKYNGSEEDKEAQEMAKNSQSKLDEAAAAKAAEEA
soluble fraction (log2): 0.184

HMIKITLGWVISVRRHDLGYTQHKMARAVGISDLTVSRIESDDGITPDNNTLRKIAEYLKIDYNSLLTLK
soluble fraction (log2): -0.175

HMYLQKGISNGKVYLSIVHGYRDPVTKKVRRKTIRSLGYLEDLEKQYADPIKHFEAVVAKMNEEEALE
soluble fraction (log2): 0.0302

HMYFFNTFTQRLFDNPELTQEEAIRQMYPGISGVQTAEKLQENFMADVYIQAAIRQEIVVQLIR
soluble fraction (log2): 0.22

HMEMTSREIIKRLEEDGWYHVKTTGDHYQMKHPTKPGKVTIVHPAKDLSIGTLRSIEKQSGVRL
soluble fraction (log2): ≥ 0.43

HMVVPSNPDELKGSFSLAEVASGYGLEVAAILEKAGWPADTDPNVKMRDAANAIGRDSTDIRNAVKALLKS
soluble fraction (log2): -0.468

HMGELDPKIIAQINTFLQGITKLIEHPGNKDAKKTALGALHKLTFDQNITANFGKQLGQLDQVIQSSEET
soluble fraction (log2): -0.127

HMRRRTLRQGATGSDVHAVQRLLNVDGAGLRTDGIFGPATERAVIAYQRKHGLAVDGVVGRETWTALLG
soluble fraction (log2): -0.0548

HMTSEVLTNATIVKMVKAKLSDDIIIDEINNARVNFDVSPEGIKSLTAQNVTEPVIETMKKAVAAQESI
soluble fraction (log2): 0.428

HMNLPTSGVDALTPAERRVARMAGDGQSNREIAQTLFVTRKTVEIHLTSVYRKLGIASRAELSARL
soluble fraction (log2): -0.59

HMAQSEDLMVMAQRILGGPEAQSFFQAEATRQGLAGFLPEPIPDFLQRLERKLSGSVGSATAHAMVAQTMG
soluble fraction (log2): -0.279

HMLEINTIIGNNLKKIRQEKKLTLDELAGITGVSKGMLSQIEKGTTNPTINTIWKISNGLNVPYTYLLEDD
soluble fraction (log2): -0.0827

HMIFRPALITDLDAVERHYTELLTREAETGRSSTNWSLGVYPTRQTATAAQAAGTLWVLEREGQVVASVI
soluble fraction (log2): -0.552

HMKELTYSDFRKAYPDIQGNLFGMAERYITALDWTEVAAKVETDEELRKERDIFYLVKTYIRKYVQ
soluble fraction (log2): -0.695

HMIPDGKWKEDPISDGQKNFINSLIEQAIDAGQDELGAEAKKYLASGEATKGNASAMIDKLKSAL
soluble fraction (log2): 0.398

HMQDRDKNVPAGKELLDNEIARLNMSLKQVEQFALPRYNLKTLEDLYSGIGSGDIRLNHLINFLQSKLI
soluble fraction (log2): -0.892

HMHGERVVTAGQTVRVVFTSNGLQVSSEGKALAAGAVGDDIQVRAASGKVIRGTVTGPGVVQV
soluble fraction (log2): ≥ 0.43

HMDKLSYALGLSMGHNFLGSGIKSLNVEDFAKGVEAVYKQEKPEISFDEAKKIINEFFSNLQDEIAE
soluble fraction (log2): -1.33

HMADQVLVMTRAVGQGDIVRNADIGLTSVAVDRAVATIPASQLDKIVGRHALVDLSPGQLLGSHSVGE
soluble fraction (log2): 0.107

HMNEYLPEAVQKLLEVMEYDIPYTSNELMERLGLKAKEGFRRNYLHPAMEMKLIQMTIPDKPNSRNQRYLR
soluble fraction (log2): -0.248

HMTNTYEVIKNDIIFGVLPPLKKLKLLELKKKYITSVSTLREILSRLSGDGFVVSKEQKGFYVSAV
soluble fraction (log2): -0.22

HMHELKIEKVAEAPNGAMRLLLSDGSEWVLGVKSWNRLNLSLEKILDVNVLRALEKESQYHLLRTKALEL
soluble fraction (log2): 0.171

HMATTAGIEKYLGSGLIKGIGPIYAKKIVRKFKEDTIRIIDEEPDRLLEVEGIGQKRLEIIKQAWQQQKE
soluble fraction (log2): -0.826

HMITNESEIERIVEAIISKNPESIAQYRSGITKVLGFLVGQVMKETKGRANPALVNRIIISKME
soluble fraction (log2): 0.242

Source: the domain aggregation screens of Martell et al. (2025)
